Results as given in patent US20250188146A1.

Legend:
CD19 = CD19 (UniProt P15391); assay: cell-based or functional assay
[1] = target: CLDN18.2 on KATO III-18.2+ cells (UniProt P56856); assay: cell-based or functional assay

CD19, sequence (P15391 20-556 limits assumed): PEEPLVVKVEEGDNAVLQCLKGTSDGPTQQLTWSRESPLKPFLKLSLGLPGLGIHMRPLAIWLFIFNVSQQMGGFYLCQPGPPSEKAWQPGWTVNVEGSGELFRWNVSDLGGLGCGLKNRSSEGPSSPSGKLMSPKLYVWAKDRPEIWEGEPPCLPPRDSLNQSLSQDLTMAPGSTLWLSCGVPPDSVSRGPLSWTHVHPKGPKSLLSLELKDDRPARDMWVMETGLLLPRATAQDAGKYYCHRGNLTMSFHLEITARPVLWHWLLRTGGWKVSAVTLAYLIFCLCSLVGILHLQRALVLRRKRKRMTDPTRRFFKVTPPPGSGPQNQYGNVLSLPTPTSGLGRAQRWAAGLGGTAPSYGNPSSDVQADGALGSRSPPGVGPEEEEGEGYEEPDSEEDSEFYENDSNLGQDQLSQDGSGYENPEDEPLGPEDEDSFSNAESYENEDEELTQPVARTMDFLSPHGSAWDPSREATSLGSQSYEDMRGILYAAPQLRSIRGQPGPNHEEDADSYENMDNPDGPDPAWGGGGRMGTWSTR

B1: CD19 CAR with humanized CD19 scFv (binding domain SEQ ID NO: 5) (protein, not shown: a dimerising Fc or GST)
chain: DIQMTQSPSSLSASVGDRVTITCRASQDISKYLNWYQQKPGKAPKLLIYHTSRLHSGVPSRFSGSGSGTDFTLTISSLQPEDFATYYCQQGNTLPYTFGQGTKVEIKGGGGSGGGGSGGGGSEVQLVESGGGLVQPGGSLRLSCAASGVSLPDYGVSWVRQAPGKGLEWVSVIWGSETTYYNSALKSRFTISRDNAKNSLYLQMNSLRAEDTAVYYCAKHYYYGGSYAMDYWGQGTLVTVSS
With B1 the CD25, hCAR+ cells; K19 co-culture 24 h; PBMC+, IL6+, IL15- (CD19) was 48.3%, the CD25, hCAR+ cells; K19 co-culture 24 h; PBMC+, IL6-, IL15- (CD19) was 53% and the CD25, hCAR+ cells; K19 co-culture 24 h; PBMC-, IL6+, IL15- (CD19) was 52.3%. The CD25, hCAR+ cells; K19 co-culture 24 h; PBMC-, IL6-, IL15+ (CD19) was 57.1%, the CD25, hCAR+ cells; K19 co-culture 24 h; PBMC-, IL6-, IL15- (CD19) was 53.1% and the CD25, hCAR+ cells; K19 co-culture 48 h; PBMC+, IL6+, IL15- (CD19) was 34.2%. The CD25, hCAR+ cells; K19 co-culture 48 h; PBMC+, IL6-, IL15- (CD19) was 35.8%, the CD25, hCAR+ cells; K19 co-culture 48 h; PBMC-, IL6+, IL15- (CD19) was 39.1% and the CD25, hCAR+ cells; K19 co-culture 48 h; PBMC-, IL6-, IL15+ (CD19) was 43.4%. For the same binder, the CD25, hCAR+ cells; K19 co-culture 48 h; PBMC-, IL6-, IL15- (CD19) was 41.5%, the CD25 MFI, hCAR+ cells; K19 co-culture 24 h; PBMC+, IL6+, IL15- (CD19) was 6740 MFI and the CD25 MFI, hCAR+ cells; K19 co-culture 24 h; PBMC+, IL6-, IL15- (CD19) was 7080 MFI. It also gave a CD25 MFI, hCAR+ cells; K19 co-culture 24 h; PBMC-, IL6+, IL15- (CD19) of 6480 MFI, a CD25 MFI, hCAR+ cells; K19 co-culture 24 h; PBMC-, IL6-, IL15+ (CD19) of 6060 MFI and a CD25 MFI, hCAR+ cells; K19 co-culture 24 h; PBMC-, IL6-, IL15- (CD19) of 6200 MFI. It also gave a CD25 MFI, hCAR+ cells; K19 co-culture 48 h; PBMC+, IL6+, IL15- (CD19) of 11200 MFI, a CD25 MFI, hCAR+ cells; K19 co-culture 48 h; PBMC+, IL6-, IL15- (CD19) of 11800 MFI and a CD25 MFI, hCAR+ cells; K19 co-culture 48 h; PBMC-, IL6+, IL15- (CD19) of 12300 MFI. For the same binder, the CD25 MFI, hCAR+ cells; K19 co-culture 48 h; PBMC-, IL6-, IL15+ (CD19) was 11400 MFI, the CD25 MFI, hCAR+ cells; K19 co-culture 48 h; PBMC-, IL6-, IL15- (CD19) was 11100 MFI and the CD137, hCAR+ cells; K19 co-culture 24 h; PBMC+, IL6+, IL15- (CD19) was 35.6%. The CD137, hCAR+ cells; K19 co-culture 24 h; PBMC+, IL6-, IL15- (CD19) was 39.9%, the CD137, hCAR+ cells; K19 co-culture 24 h; PBMC-, IL6+, IL15- (CD19) was 55.8% and the CD137, hCAR+ cells; K19 co-culture 24 h; PBMC-, IL6-, IL15+ (CD19) was 62.1%. For the same binder, the CD137, hCAR+ cells; K19 co-culture 24 h; PBMC-, IL6-, IL15- (CD19) was 57.4%, the CD137, hCAR+ cells; K19 co-culture 48 h; PBMC+, IL6+, IL15- (CD19) was 28% and the CD137, hCAR+ cells; K19 co-culture 48 h; PBMC+, IL6-, IL15- (CD19) was 47.1%. It also gave a CD137, hCAR+ cells; K19 co-culture 48 h; PBMC-, IL6+, IL15- (CD19) of 57.6%, a CD137, hCAR+ cells; K19 co-culture 48 h; PBMC-, IL6-, IL15+ (CD19) of 58.6% and a CD137, hCAR+ cells; K19 co-culture 48 h; PBMC-, IL6-, IL15- (CD19) of 57.3%. It also gave a CD137MFI, hCAR+ cells; K19 co-culture 24 h; PBMC+, IL6+, IL15- (CD19) of 18100 MFI, a CD137MFI, hCAR+ cells; K19 co-culture 24 h; PBMC+, IL6-, IL15- (CD19) of 19000 MFI and a CD137MFI, hCAR+ cells; K19 co-culture 24 h; PBMC-, IL6+, IL15- (CD19) of 23400 MFI. The CD137MFI, hCAR+ cells; K19 co-culture 24 h; PBMC-, IL6-, IL15+ (CD19) was 25500 MFI, the CD137MFI, hCAR+ cells; K19 co-culture 24 h; PBMC-, IL6-, IL15- (CD19) was 26800 MFI and the CD137MFI, hCAR+ cells; K19 co-culture 48 h; PBMC+, IL6+, IL15- (CD19) was 43000 MFI. For the same binder, the CD137MFI, hCAR+ cells; K19 co-culture 48 h; PBMC+, IL6-, IL15- (CD19) was 24800 MFI, the CD137MFI, hCAR+ cells; K19 co-culture 48 h; PBMC-, IL6+, IL15- (CD19) was 51500 MFI and the CD137MFI, hCAR+ cells; K19 co-culture 48 h; PBMC-, IL6-, IL15+ (CD19) was 51900 MFI. It also gave a CD137MFI, hCAR+ cells; K19 co-culture 48 h; PBMC-, IL6-, IL15- (CD19) of 52600 MFI, a CD137 expression of CAR T CD8+ cells, co-culture 48 h with Nalm-6 (CD19) of 11.1% and an IFN-γ release, background subtracted; K19 co-culture 24 h; PBMC+, IL6+, IL15- (CD19) of 64300. The IFN-γ release, background subtracted; K19 co-culture 24 h; PBMC+, IL6-, IL15- (CD19) was 64800, the IFN-γ release, background subtracted; K19 co-culture 24 h; PBMC-, IL6+, IL15- (CD19) was 19200 and the IFN-γ release, background subtracted; K19 co-culture 24 h; PBMC-, IL6-, IL15+ (CD19) was 21300. It also gave an IFN-γ release, background subtracted; K19 co-culture 24 h; PBMC-, IL6-, IL15- (CD19) of 16000, an IFN-γ release, background subtracted; K19 co-culture 48 h; PBMC+, IL6+, IL15- (CD19) of 152000 and an IFN-γ release, background subtracted; K19 co-culture 48 h; PBMC+, IL6-, IL15- (CD19) of 160000. The IFN-γ release, background subtracted; K19 co-culture 48 h; PBMC-, IL6+, IL15- (CD19) was 120000, the IFN-γ release, background subtracted; K19 co-culture 48 h; PBMC-, IL6-, IL15+ (CD19) was 134000 and the IFN-γ release, background subtracted; K19 co-culture 48 h; PBMC-, IL6-, IL15- (CD19) was 114000.

B2: 18.2 CAR (protein, part only; not given: Hinge, transmembrane and signaling domains, part only)
chain, part: DIVMTQSPSSLTVTAGEKVTMSCKSSQSLLNSGNQKNYLTWYQQKPGQPPKLLIYWASTRESGVPDRFTGSGSGTDFTLTISSVQAEDLAVYYCQNDYSYPFTFGSGTKLEIKGGGGSGGGGSGGGGSQVQLQQPGAELVRPGASVKLSCKASGYTFTSYWINWVKQRPGQGLEWIGNIYPSDSYTNYNQKFKDKATLTVDKSSSTAYMQLSSPTSEDSAVYYCTRSWRGNSFDYWGQGTTLTVSS
For B2, the CD137 expression of CAR T CD8+ cells, co-culture 48 h with KATO III-18.2+ [1] was 8.77%.
